Mean relative activity data for 29 molecules are collected here from US20220259593A1, “CONTROL OF MAMMALIAN GENE DOSAGE USING CRISPR” (The Regents of the University of California, priority 2019, published 2022).

The series deals with K562 CRISPRi cells. Description: Constant region variant library pooled growth screen, K562. It is filed as cell-based, human. The procedure, abridged: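 Growth screens in K562 CRISPRi cells were harvested 4-8 days post-selection at >2000× library coverage. Each variant's phenotype was referenced to the unmodified constant region with the same targeting sequence.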
[1] abbreviates: sgRNA constant region variants, activity relative to the original, un-modified constant region cr995.
Setting [2] is: sgRNA constant region variant, activity relative to unmodified constant region cr995, mean CRISPRi activity.

B1: cr952 (nucleic acid)
guide: GTTTAAGAGCTAAGCTGGAAACAGCATAGCTAGTTTAAATAAGGCTAGGCCGTAATCAACTTGAAAAAGTGGCACCGAGTCGGTGCT
modifications: listed as DNA, chemistry not fully specified
Under setting [1], B1 displayed a Mean relative activity of 0.02621.

B2: cr581 (nucleic acid)
guide: GTTTAAGAGCTAAGCTGGAAACAGCATAGCAAGTTTTAATAAGGCTAGTCCGTTATCAACTTGAAAAAGTGGCACCGAGTCGGTGCT
modifications: listed as DNA, chemistry not fully specified
Under setting [1], B2 came in with a Mean relative activity of 0.02488.

B3: cr737 (nucleic acid)
guide: GTTTAAGAGCTAAGCTGGAAACAGCATAGCAAGTTTAAATAAGGCTAGTCCGTTATCAACTTGAAAAAGTGGCAGGCTGTGGCTGCT
modifications: listed as DNA, chemistry not fully specified
As to B3, the Mean relative activity under setting [1] came to 0.02539.

B4: cr542 (nucleic acid)
guide: GTTTAAGAGCTAAGCTGGAAACAGCATAGCAAGATTAAATAAGGCTAGTCCGTCATCGACTTGAAAAAGTGGCACCGAGTCGGTGCT
modifications: listed as DNA, chemistry not fully specified
On to B4, for which, under setting [1], the Mean relative activity worked out at 0.02115.

B5: cr633 (nucleic acid)
guide: GTTTAAGAGCTAAGCTGGAAACAGCATGGCAATTTTAAATACGGCTAGTCCGTTATCAACTTGAAAAAGTGGCACCGAGTCGGTGCT
modifications: listed as DNA, chemistry not fully specified
Regarding B5, the Mean relative activity under setting [1] stood at 0.02445.

B6: cr951 (nucleic acid)
guide: GTTTAAGAGCTAAGCTGGAAACAGCATAGCAAGTTTAAATAAGGCTAGTCCGTTATCAACTTGAGAAAGTGGCTCCGAGTCGGAGCT
modifications: listed as DNA, chemistry not fully specified
In the case of B6, under setting [1], the Mean relative activity was 1.034.

B7: cr389 (nucleic acid)
guide: GTTTAAGAGCTAAGCTGGAAACAGCATAGCAAGTTTAAATAAAACTAGTTTGTTATCAACTTGAAAAAGTGGCACCGAGTCGGTGCT
modifications: listed as DNA, chemistry not fully specified
B7 displayed a Mean relative activity under setting [2] of 0.01944.

B8: cr935 (nucleic acid)
guide: GTTTAAGAGCTAAGCTGGAAACAGCATAGCAAGTTTAAATGAGGCTAGTCCGTTATCAACTTGACAAAGTGGCACCGAGTCGGTGCT
modifications: listed as DNA, chemistry not fully specified
B8: the Mean relative activity under setting [1] is 0.02413.

B9: cr961 (nucleic acid)
guide: GTTTAAGAGCTAAGCTGGAAACAGCATAGCAAGTTTAAATAAGGCTAGTCCGTTATCAACTCGAAAGAGTGCAACCGAGTCGGTTGT
modifications: listed as DNA, chemistry not fully specified
Take B9: the Mean relative activity under setting [1] was determined as 1.088.

B10: cr950 (nucleic acid)
guide: GTTTAAGAGCTAAGCTGGAAACAGCATAGCTAGGTTAAATAAGGCTAGTCCGTGATCAACTTGAAAAAGTGGCACCGAGTCGGTGCT
modifications: listed as DNA, chemistry not fully specified
The molecule B10 had a Mean relative activity under setting [1] of 0.0224.

B11: cr186 (nucleic acid)
guide: GTTTAAGAGCTAAGCTGGAAACAGCATAGCAAGGTTAAATAAGGCTAGTCCGTTATCAAGTTGAAAAACTGGCACCGAGTCGGTGCT
modifications: listed as DNA, chemistry not fully specified
Regarding B11, the Mean relative activity under setting [2] turned out to be 0.0199.

B12: cr410 (nucleic acid)
guide: GTTTAAGAGCTAAGCTGGAAACAGCATAGCAAGTTTAAATAAGGCTAGTCCGTTATCAGCTTGAGAAAGCGGCACCGAGTCGGTGCT
modifications: listed as DNA, chemistry not fully specified
On to B12, for which the Mean relative activity under setting [1] is 1.034.

B13: cr080 (nucleic acid)
guide: TTTTTAGAGCTAAGCTGGAAACAGCATAGCAAGTTTAAATAAGGCTAGTCCGTTATCAACTTGAAAAAGTGGCACCGAGTCGGTGCT
modifications: listed as DNA, chemistry not fully specified
B13: the Mean relative activity under setting [1] came to 0.02323.

B14: cr496 (nucleic acid)
guide: GTTTAAGAGCTAAGCTGGAAACAGCATAACAAGTTTAAATAAGGCTAGTCCTTTATCAACTTGAAAAAGTGGCACCGAGACGGTGCT
modifications: listed as DNA, chemistry not fully specified
For the molecule B14, the Mean relative activity under setting [2] turned out to be 0.02078.

B15: cr492 (nucleic acid)
guide: GTTTAAGAGCTAAGCTGGAAACAGCATAGCAAGTTTAAATAAGGCTAGTCCGTTCTCAACTTGAAAAAGTGGCACCGAGTCGGTGCT
modifications: listed as DNA, chemistry not fully specified
Under setting [1], B15 came in with a Mean relative activity of 1.034.

B16: cr958 (nucleic acid)
guide: GTTTAAGAGCTAAGCTGGAAACAGCATAGCAACTTTAAATAAGGCTAGTCCGTTATCAACTTGAAAAAGTGGCACTGAGTCAGTGCT
modifications: listed as DNA, chemistry not fully specified
As for B16, the Mean relative activity under setting [1] came to 0.0249.

B17: cr043 (nucleic acid)
guide: GGTTTAGAGCTAAGCTGGAAACAGCATAGCAAGTTTAAATAAGGCTAGTCCGTTATCAACTTGAAAAAGTGGCACCGAGTCGGTGCT
modifications: listed as DNA, chemistry not fully specified
Molecule B17 gave a Mean relative activity under setting [1] of 0.0245.

B18: cr700 (nucleic acid)
guide: GTTTAAGAGCTAAGCTGGAAACAGCATAGCAAGTTTAAATTAGGCTAGTCCGTTATCAACTTGAAAAAGTGGCACCGCGTCGGTGCT
modifications: listed as DNA, chemistry not fully specified
On to B18, for which, under setting [1], the Mean relative activity is reported as 0.02103.

B19: cr680 (nucleic acid)
guide: GTTTAAGAGCTAAGCTGGAAACAGCATAGCAAGTTTAAATAACGCTAGTCGGTTATCAACATGAAAATGTGGCTCCGAGTCGGAGCT
modifications: listed as DNA, chemistry not fully specified
In turn, B19 came in with a Mean relative activity under setting [2] of 0.02086.

B20: cr946 (nucleic acid)
guide: GTTTAAGAGCTAAGCTGGAAACAGCATAGCAAGTTTAAATAACGCTAGTCGGTTATCAACTGGAAACAGTGGCGCCGAGTCGGCGCT
modifications: listed as DNA, chemistry not fully specified
As for B20, the Mean relative activity under setting [1] is reported as 0.0237.

B21: cr454 (nucleic acid)
guide: GTTTAAGAGCTAAGCTGGAAACAGCATAGCAAGTTTAAATAATGCTAGTCAGTTATCACCTTGAAAAAGGGGTACCGAGTCGGTACT
modifications: listed as DNA, chemistry not fully specified
With B21, the Mean relative activity under setting [1] is given as 0.02618.

B22: cr507 (nucleic acid)
guide: GTTTAAGAGCTAAGCTGGAAACAGCATAGCAAGTTTAAATAATGCTAGTCAGTTATCAACTTGAAAAAGTGGCACAGAGTCTGTGCT
modifications: listed as DNA, chemistry not fully specified
For the molecule B22, the Mean relative activity under setting [2] is reported as 0.01954.

B23: cr418 (nucleic acid)
guide: GTTTAAGAGCTAAGCTGGAAACAGCATAGCAAGGTTAAATAAGGCTAGTCCGTTATCAACATGAAAATGTGGCACCGAGTCGGTGCT
modifications: listed as DNA, chemistry not fully specified
Molecule B23 gave a Mean relative activity under setting [2] of 0.02069.

B24: cr386 (nucleic acid)
guide: GTTTAAGAGCTAAGCTGGAAACAGCATAGCAAGGTTAAATAAGGCTAGTCCGTTATCAACCTGAAAAGGTGGCACCGAGTCGGTGCT
modifications: listed as DNA, chemistry not fully specified
Molecule B24 displayed a Mean relative activity under setting [1] of 0.02428.

B25: cr922 (nucleic acid)
guide: GTTTAAGAGCTAAGCTGGAAACAGCATAGCAAGGTTAAATAAGGCTAGTCCGTTATCAACTTGAAAAAGTGGCAACGAGTCGTTGCT
modifications: listed as DNA, chemistry not fully specified
As for B25, the Mean relative activity under setting [1] worked out at 0.02327.

B26: cr547 (nucleic acid)
guide: GTTTAAGAGCTAAGCTGGAAACAGCATAGCAAGTTTAAATGAGGCTAGTCCGTTATCAACTTGAAAAAGTGGCACCGAATCGGTGCT
modifications: listed as DNA, chemistry not fully specified
Take B26: the Mean relative activity under setting [1] came to 0.02194.

B27: cr305 (nucleic acid)
guide: GTTTAAGAGCTAAGCTGGAAACAGCATAGCAAGGTTAAATAAGGCTAGTCCGTTATCAACTTGAAAAAGTGGCCCCGAGTCGGGGCT
modifications: listed as DNA, chemistry not fully specified
Molecule B27 returned a Mean relative activity under setting [2] of 0.02073.

B28: cr986 (nucleic acid)
guide: GTTTAAGAGCTAAGCTGGAAACAGCATAGCAAGTTTAAATAAGGCTAGGCCGTTATCAACTTGAAAAAGTGGCACCGAGTCGGTGCT
modifications: listed as DNA, chemistry not fully specified
As to B28, the Mean relative activity under setting [1] was 0.0258.

B29: cr030 (nucleic acid)
guide: GCTTTAGAGCTAAGCTGGAAACAGCATAGCAAGTTTAAATAAGGCTAGTCCGTTATCAACTTGAAAAAGTGGCACCGAGTCGGTGCT
modifications: listed as DNA, chemistry not fully specified
Under setting [1], B29 showed a Mean relative activity of 0.02089.
